Laboratory results published in patent US20210206877A1 (Genentech, published 2021).
Changes are numbered by the printed parent chain. Like-named read-outs stand apart in the source and are kept apart here.

B1: 5539 (antibody, V domains shown)
VH: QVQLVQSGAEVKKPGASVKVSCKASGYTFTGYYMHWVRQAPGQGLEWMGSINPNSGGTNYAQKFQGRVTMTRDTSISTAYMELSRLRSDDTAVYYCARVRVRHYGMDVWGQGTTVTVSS
VL: DIQMTQSPSSLSASVGDRVTITCRASQSISSYLNWYQQKPGKAPKLLIYAASSLQSGVPSRFSGSGSGTDFTLTISSLQPEDFATYYCQQPLSHPRTFGGGTKVEIK
B2: 5644 (antibody, V domains shown)
VH: QLQLQESGPGLVKPSETLSLTCTVSGGSISSSSYYWGWIRQPPGKGLEWIGSIYYSGSTYYNPSLKSRVTISVDTSKNQFSLKLSSVTAADTAVYYCARVGHGISYFDLWGRGTLVTVSS
VL: EIVLTQSPATLSLSPGERATLSCRASQSVSSYLAWYQQKPGQAPRLLIYDASKRATGIPARFSGSGSGTDFTLTISSLEPEDFAVYYCQQVYTWPPRTFGGGTKVEIK
B3: 5747 (antibody, V domains shown)
VH: B2 VH with S52N, V100L, I104Y
VL: B2 VL with K53N, T93L
B4: 5903 (antibody, V domains shown)
VH: B2 VH with S52M, Y60W
VL: B2 VL
B5: 5543 (antibody, V domains shown)
VH: B2 VH
VL: B2 VL with K53N, V91A, T93V
B6: 5643 (antibody, V domains shown)
VH: B2 VH
VL: B2 VL with K53N, V91S, Y92L
B7: 5902 (antibody, V domains shown)
VH: B2 VH with Y55R, Y60W
VL: B2 VL
B8: 5905 (antibody, V domains shown)
VH: B2 VH with S31W, G37S, Y55R, S58R
VL: B2 VL
B9: 5260 (antibody, V domains shown)
VH: QVQLVQSGAEVKKPGSSVKVSCKASGGTFSSYAISWVRQAPGQGLEWMGSIIPIFGTANYAQKFQGRVTITADESTSTAYMELSSLRSEDTAVYYCARSGGTKYGMLDVWGQGTMVTVSS
VL: EIVMTQSPATLSVSPGERATLSCRASQSVGSNLAWYQQKPGQAPRLLIYGASTRATGIPARFSGSGSGTEFTLTISSLQSEDFAVYYCQQAVVWPPRTFGGGTKVEIK
B10: 5887 (antibody, V domains shown)
VH: B9 VH with S30R, S31G, S50N, I54G
VL: B9 VL with G30S, A91L, V92I, V93L
B11: 5536 (antibody, V domains shown)
VH: B9 VH
VL: B9 VL with A91S, V92Y, V93L
B12: 5883 (antibody, V domains shown)
VH: B9 VH with S50G, F55G, T57G
VL: B9 VL with G30S, A91L, V92I, V93L
B13: 5884 (antibody, V domains shown)
VH: B9 VH with S31G, A33G, S50N, I54G
VL: B9 VL with G30S, A91L, V92I, V93L
B14: 5571 (antibody, V domains shown)
VH: B9 VH with S50N, M115V
VL: B9 VL with G30S, A91L, V92I, V93L
B15: 5572 (antibody, V domains shown)
VH: B9 VH
VL: B9 VL with A91L, V92Y, V93T

Columns and labels:
Test in all cases: cell-based or functional assay
human BACE1 ECD = human BACE1 ECD (human, UniProt P56817)
murine BACE1 ECD = target: murine BACE1 ECD
[1] = target: T1, BACE1 ECD (as used in the enzyme activity assay) (UniProt P56817 22-457, limits assumed)
[2] = target: T2, BACE1 endogenous to primary cortical neurons from E16.5 CD1 mice (mouse, UniProt P56818 46-501)
[3] = target: T1, BACE1 ECD (as used in the enzyme …); remark: listed apart in the source
[4] = target: T2, BACE1 endogenous to primary cortical …; remark: listed apart in the source
Wherever % inhibition, FRET short substrate assay (negative = activation) is given: test concentration or dose not given here.

T2 sequence (P56818 46-501): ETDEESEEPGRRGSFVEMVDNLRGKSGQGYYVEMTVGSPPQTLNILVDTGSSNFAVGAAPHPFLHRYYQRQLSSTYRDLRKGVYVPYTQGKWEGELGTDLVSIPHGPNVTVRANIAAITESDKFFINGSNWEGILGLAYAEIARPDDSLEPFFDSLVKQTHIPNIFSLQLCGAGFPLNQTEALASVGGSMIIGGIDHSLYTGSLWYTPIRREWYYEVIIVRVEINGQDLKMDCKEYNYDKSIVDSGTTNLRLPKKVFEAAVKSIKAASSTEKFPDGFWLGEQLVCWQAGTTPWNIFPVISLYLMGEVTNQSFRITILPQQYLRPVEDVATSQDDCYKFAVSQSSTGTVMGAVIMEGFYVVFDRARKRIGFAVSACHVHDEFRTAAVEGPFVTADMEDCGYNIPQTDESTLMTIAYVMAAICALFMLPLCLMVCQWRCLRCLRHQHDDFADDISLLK
Sequence of human BACE1 ECD (P56817 22-457): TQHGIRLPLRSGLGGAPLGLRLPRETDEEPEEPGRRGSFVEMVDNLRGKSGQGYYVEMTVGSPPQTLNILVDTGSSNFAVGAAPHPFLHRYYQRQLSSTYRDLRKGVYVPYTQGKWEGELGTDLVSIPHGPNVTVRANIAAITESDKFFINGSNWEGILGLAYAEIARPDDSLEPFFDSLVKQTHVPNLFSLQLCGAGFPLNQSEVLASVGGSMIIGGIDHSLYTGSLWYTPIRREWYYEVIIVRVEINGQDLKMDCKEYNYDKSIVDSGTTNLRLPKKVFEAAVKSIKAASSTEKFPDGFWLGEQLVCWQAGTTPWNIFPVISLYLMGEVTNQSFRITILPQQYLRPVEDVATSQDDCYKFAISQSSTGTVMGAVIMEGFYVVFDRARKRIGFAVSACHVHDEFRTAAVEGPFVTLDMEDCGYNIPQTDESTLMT
T1 sequence (P56817 22-457 limits assumed): as the sequence (P56817 22-457) above
Sequence of murine BACE1 ECD (single chain, as listed by the source limits assumed): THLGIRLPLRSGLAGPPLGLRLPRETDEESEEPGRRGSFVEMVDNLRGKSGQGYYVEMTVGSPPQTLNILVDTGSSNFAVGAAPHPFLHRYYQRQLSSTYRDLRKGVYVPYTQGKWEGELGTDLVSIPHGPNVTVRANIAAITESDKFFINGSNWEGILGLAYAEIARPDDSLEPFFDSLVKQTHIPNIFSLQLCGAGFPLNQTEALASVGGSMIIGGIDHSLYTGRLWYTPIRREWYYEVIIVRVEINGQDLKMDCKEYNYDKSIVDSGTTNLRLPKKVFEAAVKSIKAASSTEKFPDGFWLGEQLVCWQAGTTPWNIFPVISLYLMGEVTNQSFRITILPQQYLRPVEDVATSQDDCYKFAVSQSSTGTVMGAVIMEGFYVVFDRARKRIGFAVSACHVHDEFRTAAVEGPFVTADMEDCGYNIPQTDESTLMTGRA

Row | % inhibition, FRET short substrate assay (negative = activation) (human BACE1 ECD) [%] | % inhibition, FRET short substrate assay (negative = activation) (murine BACE1 ECD) [%] | EC50, HTRF long substrate assay [1] [nM] | max % inhibition, Abeta x-40 in mouse cortical neurons [2] [%] | EC50, FRET short substrate assay [1] [nM] | EC50, FRET short substrate assay [3] [nM] | EC50, HTRF long substrate assay [3] [nM] | IC50, Abeta x-40 in mouse cortical neurons (row 5903*, second run) [4] [nM] | max % inhibition, Abeta x-40 in mouse cortical neurons [4] [%] | IC50, Abeta x-40 in mouse cortical neurons (row 5905*, second run) [4] [nM] | IC50, Abeta x-40 in mouse cortical neurons (row 5887*, second run) [2] [nM] | IC50, Abeta x-40 in mouse cortical neurons (row 5884*, second run) [2] [nM] | Binder
1 | 42 | 23 | 0.694 | 45 |  |  |  |  |  |  |  |  | B1
2 | 65 | 63 | 8.75 | 72 | 8.47 |  |  |  |  |  |  |  | B2
3 |  |  |  | 74 |  |  |  |  |  |  |  |  | B3
4 |  |  |  |  |  | 3.12 | 1.38 | 7.27 | 72 |  |  |  | B4
5 |  |  | 30 | 65 | 9.11 |  |  |  |  |  |  |  | B5
6 |  |  | 17.7 | 60 | 1.41 |  |  |  |  |  |  |  | B6
7 |  |  |  | 67 |  |  |  |  |  |  |  |  | B7
8 | 65 | 72 |  |  |  | 1.33 | 3.91 |  | 65 | 0.83 |  |  | B8
9 | -54 | -35 | 720 | 74 | 36.8 |  |  |  |  |  |  |  | B9
10 | -102 | -230 | 5.5 | 75 | 0.482 |  |  |  |  |  | 2.53 |  | B10
11 | 32 | 30 | 0.578 | 84 |  |  |  |  |  |  |  |  | B11
12 | -129 | -275 | 5.93 | 82 | 0.607 |  |  |  |  |  |  |  | B12
13 | -102 | -243 | 7.76 | 83 | 0.478 |  |  |  |  |  |  | 3.51 | B13
14 | -89 | -175 | 5.06 | 84 | 0.417 |  |  |  |  |  |  |  | B14
15 | 75 | 77 | 1.28 | 73 | 15.9 |  |  |  |  |  |  |  | B15
